Legend:
pMAP38 = assay: Western blot of phosphorylated MAP38 in COLO201; format: cell-based; conditions: COLO201, 72 h of treatment
[1] = biological target: T1, peptide […] (amino acids 3-24 of the CLIC1 protein) (Homo sapiens, UniProt O00299); assay: PEPperMAP epitope mapping on CLIC1 peptide microarrays; format: binding
T1 construct: conducted against the peptide […]; (amino acids 3-24 of the CLIC1 protein); host or cells: synthetic peptide microarray (PEPperMAP)
Procedure: PEPperMAP epitope Mapping® of the tmCLIC1omab antibody was conducted against the peptide […] (amino acids 3-24 of the CLIC1 protein) translated to linear peptides consisting of 5, 10 and 15 amino acids with peptide-peptide overlaps of 4, 9 and 14 amino acids for high-resolution epitope data. The resulting CLIC1 peptide microarrays were incubated with the antibody samples at concentrations of 1 μg/ml, 10 μg/ml, 100 μg/ml and 250 μg/ml in incubation buffer, followed by staining with secondary and control antibodies and reading with a LI-COR Odyssey Imaging System. The intensity of the points and peptide annotation were quantified with the PepSlide® Analyzer.

B1: tmCLIC1omab: IgG1 class antibody containing the heavy chain variable region SEQ ID NO:13 and the light chain variable region SEQ ID NO:14 (antibody, listed as Mus musculus, V domains shown)
VH: EVMLVESGGGLVKPGGSLKLSCAASGFAFSNYAMSWIRQIPEKRLEWVATISTGGSSTFYPDSVKGRFTISRDNAKNTLYLQMSSLRSEDTAMYYCTRHAYEAWFAYWGQGTLVTVSA
VL: QIVLTQSPALMSASPGEKVTMTCSASSSVSYMYWYQQRPRSSPKPWIYLTSTLASGVPTRFSGSGSGTSYSLTISSMEAEDAATYYCQQWNSHPLTFGSGTKLEIK
expression of pMAP38 (pMAP38): downregulated | binding to the QVELFV sequence ([1]; linear peptide microarray): with lower affinity, binds the QVELFV sequence (SEQ ID NO:27) well | epitope sequence for which the antibody exhibits specificity ([1]; linear peptides of 5, 10 and 15 amino acids, antibody 1-250 μg/ml): QVELF

Source: US20240002499A1, “ANTI-CLIC1 PROTEIN ANTIBODIES AND THE DIAGNOSTIC AND THERAPEUTIC USES THEREOF” (Universita' Degli Studi di Milano, priority 2020, published 2024)
